The values that follow come from patent US20180305450A1 (AstraZeneca / MedImmune, published 2018).

As a reminder, the IC50 is the concentration at which inhibition is half-maximal. Usually Kd stands for a measure of binding affinity in units of concentration. The term koff denotes the first-order rate constant of dissociation. As usually defined, the kon is the second-order rate constant of association.

T1: recombinant biotinylated rat PAR2 extracellular residues 1-75, N-terminal AviTag, C-terminal Flag and poly … (rat, UniProt Q63645 26-75, not fully specified; biotin on the AviTag (enzymatic biotinylation))
T1 construct: range 1-75; not shown: N-terminal AviTag (Avidity LLC); C-terminal Flag and poly Histidine tags
T1 chain (looked up): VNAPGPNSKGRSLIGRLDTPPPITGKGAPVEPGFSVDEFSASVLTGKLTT

B1: Par0067 IgG (antibody, V domains shown)
VH: EVQLLESGGGLVQPGGSLRLSCAASGFTFSSYAMNWVRQAPGKGLEWVSTISYSGSLISYADSVKGRFTISRDNSKNTLYLQMNSLRAEDTAVYYCARINNDPMDVWGQGTLVTVSS
VL: SIELTQPPSVSVSPGQTASITCSGDNLGKKYVQWYQQKPGQSPVLVIYDDSNRPSGIPERFSGSNSGNTATLTISGTQAMDEADYYCQTWDGNPTTGETNVFGGGTKLTVL
notes: IgG1-TM (L234F, L235E, P331S), human lambda light chain; also called ZZ15D2-D02; parent Par0067 IgG
B2: PaB670149 IgG (antibody, V domains shown)
VH: B1 VH with S54H, S56H, L57H, V64H, K65H, G66H, N101H
VL: B1 VL with Q88H, D91H, G92H, N93H, T96H, T99H
notes: IgG1-TM (L234F, L235E, P331S), human lambda light chain
B3: PaB670159 IgG (antibody, V domains shown)
VH: B1 VH with S54H, S56H, L57H, V64H, K65H, G66H, N101H
VL: B1 VL with N93H, P94H, T95H, V101H
notes: as for B2
B4: PaB670045 IgG (antibody, V domains shown)
VH: B1 VH with N100H, N101H
VL: B1 VL
notes: IgG1-TM (L234F, L235E, P331S), human lambda light chain; also called ZZ1KX3-F01
B5: PaB670084 IgG (antibody, V domains shown)
VH: B1 VH with Y53H, S56H, S59H, Y60H, V64H
VL: B1 VL
notes: IgG1-TM (L234F, L235E, P331S), human lambda light chain; also called ZZ1PXA-A05
B6: PaB670128 IgG (antibody, V domains shown)
VH: B1 VH with S54H, S56H, L57H, V64H, K65H, G66H, N100H, N101H
VL: B1 VL
notes: IgG1-TM (L234F, L235E, P331S), human lambda light chain; also called ZZ1RUE-A01
B7: PaB670163 IgG (antibody, V domains shown)
VH: B1 VH with S54H, S56H, L57H, V64H, K65H, G66H, N101H
VL: B1 VL with Q88H, N93H, P94H, V101H
notes: as for B2
B8: PaB670048 IgG (antibody, V domains shown)
VH: B1 VH with N100H, N101H, V106H
VL: B1 VL
notes: IgG1-TM (L234F, L235E, P331S), human lambda light chain; also called ZZ1KX4-E11
B9: PaB670084 Fab (Fab, V domains shown)
VH: B1 VH with Y53H, S56H, S59H, Y60H, V64H
VL: B1 VL
notes: Fab; also called ZZ1PXA-A05
B10: PaB670076 Fab (Fab, V domains shown)
VH: B1 VH
VL: B1 VL with Q88H, G92H, N93H, P94H, T99H
notes: Fab; also called ZZ1NHH-F09

Positions count from the first letter of the chain named. In names and notes the source's numbering stands.

T2 sequence (P55085 26-75): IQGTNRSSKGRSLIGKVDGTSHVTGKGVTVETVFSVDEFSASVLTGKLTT

One assay concerns the target T2, recombinant biotinylated human PAR2 extracellular domain (residues 1-75), N-terminal AviTag, C-terminal Flag … (human, UniProt P55085 26-75, biotin on the AviTag (enzymatic biotinylation)).
T2 construct: also called Bio-human-PAR2 ECD; human PAR2 ECD; not shown: N-terminal AviTag (Avidity LLC); C-terminal Flag and poly Histidine tags
The assay is described as follows: HTRF competition with Dylight650-Par0067 IgG, pH 7.4, IgG. On the procedure:
(§1) Parent Par0067 IgG (used as a reference/control in all assays) was pre-diluted to give a 2000 nM stock in each of the two different pH assay buffers (in order to give a top final assay IgG concentration of 500 nM). All test, or other reference/control IgG were tested from a top final assay concentration of ¼ of the neat undiluted sample (i.e. no pre-dilution step was performed). Duplicate 11 point 1:3 serial dilutions then were prepared on 384 well polypropylene Greiner plates in each of the two assay buffers (pH 7.4 & 6.0). 5 μl per well was transferred from the relevant pH IgG dilution plate to the corresponding assay plate (pH 7.4 and pH 6.0). 5 ul of the appropriate pH assay buffer was added to the total and non-specific wells.
(§2) For multipoint dose response curves % Specific Binding values were plotted versus test purified antibody concentration (scFv or IgG). IC₅₀ values were determined via a sigmoidal dose response inhibition variable slope curve fit (4 parameter logistic equation) using Graphpad Prism Software.
(Time-resolved FRET reads energy transfer from a long-lived donor to a nearby acceptor.)
Take B1: the half-inhibitory concentration (IC50) turned out to be 0.835 nM.
As to B2, the half-inhibitory concentration (IC50) amounted to 505 nM.
For the molecule B3, the 50% inhibitory concentration (IC50) came to 161 nM.
Regarding B4, the half-maximal inhibitory concentration (IC50) turned out to be 2.9 nM.
B5: the half-maximal inhibitory concentration (IC50) was 10.3 nM.
For B6, the IC50 was found to be 32.8 nM.
The same measure, in the same setting: for B7 the value was 145 nM.
The same measure, in the same setting: for B8 the value was 5.7 nM.

The target in the next assay is T2, recombinant biotinylated human PAR2 …. In words: HTRF competition with Dylight650-Par0067 IgG, pH 6.0, IgG. The procedure: as §1, §2
Consider B1, for which the IC50 is 0.79 nM.
For the molecule B4, the half-inhibitory concentration (IC50) was 25.8 nM.
On the same count and under the same terms, in the case of B5 it was 64.6 nM; in that of B8, 48.2 nM.

For another assay the target is unchanged. The assay is described as follows: Biacore SPR 25 C, pH 7.4. The procedure:
(§3) The experiments were carried out using recombinant human, rat and cynomolgus PAR2 with an N-terminal Avi tag and C-terminal Flag-His tags.
(§4) Streptavidin was covalently immobilised to a C1 chip surface using standard amine coupling techniques at a concentration of 4 μg/ml in 10 mM Sodium acetate pH 4.5. A final streptavidin surface of approximately 30-100 RUs was achieved. Recombinant biotinylated PAR2 species (produced in-house) were titrated onto the streptavidin chip surface at 4 μg/ml in HBS-EP+ buffer to enable Fab binding at saturation (Rₘₐₓ). This low level of analyte binding ensured minimal mass transport effects.
(§5) The anti-PAR2 Fabs were serially diluted (0.39 nM-25 nM) in HBS-EP+ buffer pH 7.4 or MES-BS-EP+ pH 6.0 buffer or in MES-BS-EP+ pH 5.6 buffer and flowed over the chip at 50 μl/min, with 3 minutes association and up to 30 minutes dissociation. Multiple buffer-only injections were made under the same conditions to allow for double reference subtraction of the final sensorgram sets, which were analysed using the BiaEval software (version 2.0.1). The chip surface was fully regenerated with pulses of 4 M MgCl₂.
In general terms: SPR reads the build-up and loss of mass on a sensor chip optically.
With B9, the Kd was 0.25 nM, the dissociation rate constant (koff) was 0.00162 s⁻¹ and the on-rate constant (kon) came out at 6.49e+06 M⁻¹ s⁻¹.
The corresponding values for B10 are 0.207 nM, 0.00121 s⁻¹ and 5.84e+06 M⁻¹ s⁻¹.

The next assay deals with T1, recombinant biotinylated rat PAR2 …. In words: Biacore SPR 25 C, pH 7.4. On the procedure:
as §3, §4, §5
As for B9, the equilibrium dissociation constant (Kd) worked out at 1.23 nM, the koff was 0.00837 s⁻¹ and the kon amounted to 6.83e+06 M⁻¹ s⁻¹.
For the molecule B10, the Kd is 1.69 nM, the off-rate (koff) was determined as 0.0107 s⁻¹ and the kon stood at 6.34e+06 M⁻¹ s⁻¹.

A further assay deals with T2, recombinant biotinylated human PAR2 …. In words: Biacore SPR 25 C, pH 6.0. The procedure:
as §3, §4, §5
As to B9, the dissociation constant (Kd) amounted to 4.41 nM, the off-rate constant (koff) was found to be 0.00763 s⁻¹ and the on-rate constant (kon) was 1.73e+06 M⁻¹ s⁻¹.
The like results for B10 were, in that order, 4.61 nM, 0.00514 s⁻¹ and 1.11e+06 M⁻¹ s⁻¹.

In the next assay the target is T1, recombinant biotinylated rat PAR2 …. The assay is described as follows: Biacore SPR 25 C, pH 6.0. On the procedure:
as §3, §4, §5
For B9, the Kd came to 10.8 nM, the koff amounted to 0.0277 s⁻¹ and the kon stood at 2.57e+06 M⁻¹ s⁻¹.
On to B10, for which the Kd came out at 30.7 nM, the koff is 0.051 s⁻¹ and the kon worked out at 1.66e+06 M⁻¹ s⁻¹.

A further assay addresses T2, recombinant biotinylated human PAR2 …. In words: HTRF competition with Dylight650-Par0067 IgG, IgG. The procedure:
as §1, §2
Consider B1, for which the “Fold IC50 (pH 6.0 v pH 7.4)” value worked out at 0.95 fold and the “Fold IC50 pH 7.4 (Variant v Par0067)” value stood at 1 fold.
Consider B2, for which the “Fold IC50 pH 7.4 (Variant v Par0067)” value came out at 605 fold.
In the case of B3, the “Fold IC50 pH 7.4 (Variant v Par0067)” value was determined as 193 fold.
For the molecule B4, the “Fold IC50 (pH 6.0 v pH 7.4)” value amounted to 8.9 fold and the “Fold IC50 pH 7.4 (Variant v Par0067)” value was found to be 3.5 fold.
Consider B5, for which the “Fold IC50 (pH 6.0 v pH 7.4)” value came to 6.3 fold and the “Fold IC50 pH 7.4 (Variant v Par0067)” value turned out to be 12.3 fold.
Turning to B6, the “Fold IC50 pH 7.4 (Variant v Par0067)” value stood at 39.3 fold.
On the same count and under the same terms, in the case of B7 it was 174 fold.
B8: the “Fold IC50 (pH 6.0 v pH 7.4)” value was found to be 8.5 fold and the “Fold IC50 pH 7.4 (Variant v Par0067)” value amounted to 6.8 fold.
